Experimental data published in publication PMC4845099.

Test system: Cc1cc(=O)oc2cc(NC(=O)CNC(=O)CNC(=O)[C@H](CCCNC(=N)N)NC(=O)[C@H](CC(C)C)NC(=O)[C@H](CCCNC(=N)N)NC(=O)OCc3ccccc3)ccc12
Test: purified protein, by the assay type
Details: pH 7.5

MERS-PLpro (Betacoronavirus England 1)
Km: 142 µM
kcat/Km: 18000 M⁻¹ s⁻¹
